Molecular target: T1, Recombinant CC16 (uteroglobin SCGB1A1), P11684
T1 chain: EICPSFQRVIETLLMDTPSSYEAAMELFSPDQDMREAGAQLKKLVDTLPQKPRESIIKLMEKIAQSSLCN

B1: native human neutrophil elastase (protein)
chain: IVGGRRARPHAWPFMVSLQLRGGHFCGATLIAPNFVMSAAHCVANVNVRAVRVVLGAHNLSRREPTRQVFAVQRIFENGYDPVNLLNDIVILQLNGSATINANVQVAQLPAQGRRLGNGVQCLAMGWGLLGRNRGIASVLQELNVTVVTSLCRRSNVCTLVRGRQAGVCFGDSGSPLVCNGLIHGIASFVRGGCASGLYPDAFAPVAQFVNWIDSIIQ
  in vitro cleavage (mass spectrometry of fragments): two peptides with unique amino acid sequences released from HNE-mediated cleavage of CC16 in vitro
